Laboratory results from PMC11409006 (Computational and Structural Biotechnology Journal, 2024).

B1: camelid single domain antibody sdAbCSP1 (VHH)
VHH: QVQLQESGGGLVQAGGSLRLSCAASGRTFSSYSMGWFRLVPGKEREFVARISSSGGNTYYADSVRGRFTISRDNAKNTVYLQMNSLKPEDTAVYYCAADLLQFGRSSRAADYDYWGQGTQVTVSS
notes: full length is aa1-144; CDR1 aa25-33, CDR2 aa52-57, HV4 aa74-77, CDR3 aa100-118; aa1-125 is the form without non-structured extensions; source: recombinantly expressed
B2: sdAbCSP1 (VHH)
VHH: B1 VHH
notes: 144 residues (aa1-144); CDR1 aa25-33, CDR2 aa52-57, HV4 aa74-77, CDR3 aa100-118; aa106-108 are SSR; aa1-125 are the folded domain; also called camelid single domain antibody sdAbCSP1; pQ-sdAbCSP1 (form with N-terminal pyro-glutamine); source: recombinantly expressed

Legend:
Conditions in all cases: both partners purified
[1] = target: T1, C-terminal domain of the Plasmodium falciparum circumsporozoite protein, PfCSP-Cext (Plasmodium falciparum; strain not …, UniProt Q7K740); experiment: native MS; ITEM-TWO: nanoESI of the mixture (sdAbCSP1 : PfCSP-Cext = 1 : 3.4) in 200 mM ammonium acetate, pH 6.7; complex ions isolated and dissociated in the gas phase by stepwise raised collision cell voltage (2-120 V); apparent gas-phase constants; triplicate
T1 construct: Plasmodium falciparum circumsporozoite protein, C-terminal domain (alpha-TSR) with unstructured N- and C-terminal extensions; the compactly folded PfCSP-C domain is aa39-100 of PfCSP-Cext; K42, K45, E46, L48, N49 of PfCSP-Cext equal K314, K317, E318, L320, N321 of PfCSP; numbers count on: the construct PfCSP-Cext; also called PfaCSP-Cext; PfCSP-C (as named in the ITC sections); source: …
T1 sequence (Q7K740 310-374): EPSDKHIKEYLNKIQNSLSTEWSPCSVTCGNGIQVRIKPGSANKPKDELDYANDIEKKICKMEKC

[2] = target: T1, C-terminal domain of the Plasmodium …; experiment: ITC; sdAbCSP1 (45 µM) titrated into the cell with PfCSP-C (4 µM); 20 mM Tris-HCl, 150 mM NaCl, pH 8.0; 25 °C; one set of sites model; triplicate
PfCSP-Cext = target: T2, PfCSP-Cext (Plasmodium falciparum, UniProt Q7K740); experiment: ITC; sdAbCSP1 (45 µM) titrated into the cell with PfCSP-C (4 µM); 25 °C; 20 mM Tris-HCl, 150 mM NaCl, pH 8.0; one set of sites model; triplicate
T2 construct: circumsporozoite protein (PfCSP) of Plasmodium falciparum, C-terminal domain with non-structured N- and C-terminal extensions; the compactly folded PfCSP-C domain is aa39-100; aa114-127 contain the His-tag; numbers count on: the PfCSP-Cext construct; also called C-terminal domain of the Plasmodium falciparum circumsporozoite protein; PfCSP-C (so called in the ITC methods and results); source: E. …
T2 sequence (Q7K740 310-374): as above

Row | Binder | KD m0g# (apparent quasi equilibrium constant of gas-phase complex dissociation) [1] [s⁻¹] | dH m0g# (apparent enthalpy of gas-phase complex dissociation) [1] [kJ/mol] | kD m0g# (apparent rate constant of gas-phase complex dissociation) [1] | Kd [2] [nM] | dH [2] [kJ/mol] | stoichiometry N (PfCSP-Cext)
1 | B1 | 3.7e-12 | 50.2 | 1e+10 Ø (unitless number) | 0.5 | -34.9 | –
2 | B2 | – | – | – | – | – | 0.9 ± 0.12
